This test concerns the target T. spiralis E/S antigen.

B1: Anti-[TRISP][B7] (antibody, V domains shown)
VH: AVTLDESGGGLQTPRGGLSLVCKASGYTFSSHNMAWVRQAPGKGLEFVAGISNTGSFTLYGAAVKGRATISRDNGQSTVRLQLNNLRAEDTGTYYCAKHAGVGLYSIDAWGHGTEVIVSS
VL: ALTQPSSVSANLGGTVKITCSGGTSDYGWYQQKAPGSAPVTLIYDNTNRPSDIPSRFSGSLSGSTNTLTITGVQAEDEAVYFCGSADRTYAGVFGAGTTLTVL
Consider B1, for which the detection limit was found to be 6 ng/mL.

B2: Anti-[TRISP][C9] (antibody, V domains shown)
VH: AVTLDESGGGLQTPGGALSLVCKASGFSISSYSMQWVRQAPGKGLEWVAGIYYDGNTWYAPAVKGRATISRDNGQSTVRLRLNNLRAEDTATYFCAKYAGGYSIDAWGHGTEVIVSS
VL: ALTQPSSVSANPGETVKITCSGSSGSYGWYQQKSPGSGPVTVIYYNDKRPSDIPSRFSGSASGSTATLTITGVQAEDEAVYFCGGYDSSTYVGIFGAGTTLTVL
Molecule B2 showed a detection limit of 6 ng/mL.

These data come from patent EP3502685A1.
